Measurements taken from paper PMC2896262 (Structure (London, England : 1993), 2009).

T1: soNrtR (Shewanella oneidensis, UniProt Q8EFJ3 1-237)
T1 sequence: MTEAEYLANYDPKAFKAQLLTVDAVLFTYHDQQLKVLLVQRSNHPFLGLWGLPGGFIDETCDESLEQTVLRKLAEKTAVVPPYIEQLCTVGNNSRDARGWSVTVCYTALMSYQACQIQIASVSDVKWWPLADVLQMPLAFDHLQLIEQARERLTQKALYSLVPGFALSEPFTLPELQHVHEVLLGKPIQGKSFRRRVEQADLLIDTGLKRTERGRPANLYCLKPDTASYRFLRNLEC


Legend:
[1] = target: T1, soNrtR; assay: X-ray crystal structure
[2] = target: the molecule itself; assay: crystal structure

Binder	binding result [1]	stoichiometry N [2]
28-nt NrtR-box DNA (dsDNA) DNA 1: CGTAATAGTGTCTTAAAGACACTATTAC DNA 2: CGTAATAGTGTCTTTAAGACACTATTAC	binds	
N-terminal domain of soNrtR (residues 1-159) (domain or fragment, Shewanella oneidensis, UniProt Q8EFJ3 1-159, looked up) MTEAEYLANYDPKAFKAQLLTVDAVLFTYHDQQLKVLLVQRSNHPFLGLWGLPGGFIDETCDESLEQTVLRKLAEKTAVVPPYIEQLCTVGNNSRDARGWSVTVCYTALMSYQACQIQIASVSDVKWWPLADVLQMPLAFDHLQLIEQARERLTQKALY		2
